Patent US20040043959A1, “Combination therapies for treating methylthioadenosine phosphorylase deficient cells” (priority 2002, published 2004)

Tests used:
Test in all cases: MTAP substrate assay, coupled spectrophotometric (adenine, xanthine oxidase)
Format in all cases: biochemical, human
Details in all cases: other: substrate of MTAP, 37° C.
[1] = substrate: CSC[C@H]1O[C@@H](n2cnc3c(N)ncnc32)[C@H](N=[N+]=[N-])[C@@H]1O
Protocol: (§1) An enzymatic assay to determine the activity of MTAP against a given substrate was performed. Human MTAP containing an N-terminal six-histidine tag was expressed in E. coli BL21 DE3 cells. The protein was purified to homogeneity by Ni2+ affinity chromatography. Enzymatic activity was measured using a coupled spectrophotometric assay designed to monitor the reaction product adenine (Savarese, T. M., Crabtree, G. W., and Parks, R. E. Jr., (1980) Biochem. Pharmacol. 30, 189-199). Various concentrations of the indicated 5′-deoxymethylthio adenosine (MTA) or substrate were incubated in assay buffer (40 mM potassium phosphate buffer, 1 mM, and DTT 0.8 units/ml xanthine oxidase coupling enzyme) for 5 minutes at 37° C. The reaction was initiated by the addition of MTAP. The exact concentration of enzyme used varied for each substrate tested and ranged from 2 nM to 500 nM. Activity as a function of enzyme concentration was determined for each substrate tested to ensure that the appropriate enzyme concentration was used. Activity was detected by continuous monitoring of absorbance at 305 nm for 10 minutes (ΔE=15,500 M^−1).
(§2) Library compounds (10 and 50 uM) were tested using the assay described above with 2 nM MTAP enzyme. The resultant initial velocities are reported as a percentage of the initial velocity observed when MTA is the substrate. MTA controls, 10 and 50 uM concentrations, were run on each plate alongside the library compounds.

[2] = substrate: CC(C)(C)SC[C@H]1O[C@@H](n2cnc3c(N)ncnc32)[C@H](O)[C@@H]1O
Protocol: as §1, §2

[3] = substrate: Nc1ncnc2c1ncn2[C@@H]1O[C@H](CSc2ccccc2)[C@@H](O)[C@H]1O
Protocol: as §1, §2

[4] = substrate: Nc1ncnc2c1ncn2[C@@H]1O[C@H](CSCc2ccccc2)[C@@H](O)[C@H]1O
Protocol: as §1, §2

[5] = substrate: Nc1ncnc2c1ncn2[C@@H]1O[C@H](CNCCc2ccccn2)[C@@H](O)[C@H]1O
Protocol: as §1, §2

[6] = substrate: Cc1ccccc1SC[C@H]1O[C@@H](n2cnc3c(N)ncnc32)[C@H](O)[C@@H]1O
Protocol: as §1, §2

[7] = substrate: COc1ccccc1SC[C@H]1O[C@@H](n2cnc3c(N)ncnc32)[C@H](O)[C@@H]1O
Protocol: as §1, §2

[8] = substrate: Nc1ncnc2c1ncn2[C@@H]1O[C@H](CNCc2ccc(F)cc2)[C@@H](O)[C@H]1O
Protocol: as §1, §2

[9] = substrate: CSC[C@@H]1C[C@@H](O)[C@H](n2cnc3c(N)ncnc32)O1
Protocol: as §1, §2

[10] = substrate: CSC[C@H]1O[C@@H](n2cnc3c(N)ncnc32)[C@H](O)[C@@H]1O
Protocol: as §1, §2

[11] = substrate: Nc1ncnc2c1ncn2[C@@H]1O[C@H](CSc2ncccn2)[C@@H](O)[C@H]1O
Protocol: as §1, §2

[12] = substrate: Nc1ncnc2c1ncn2[C@@H]1O[C@H](COc2cccnc2)[C@@H](O)[C@H]1O
Protocol: as §1, §2

[13] = substrate: Nc1ncnc2c1ncn2[C@@H]1O[C@H](CSCc2ccc(F)cc2)[C@@H](O)[C@H]1O
Protocol: as §1, §2

[14] = substrate: COc1ccc(SC[C@H]2O[C@@H](n3cnc4c(N)ncnc43)[C@H](O)[C@@H]2O)cc1
Protocol: as §1, §2

[15] = substrate: Nc1ncnc2c1ncn2[C@@H]1O[C@H](CSCc2ccc(Cl)cc2)[C@@H](O)[C@H]1O
Protocol: as §1, §2

[16] = substrate: Nc1ncnc2c1ncn2[C@@H]1O[C@H](CSc2nccs2)[C@@H](O)[C@H]1O
Protocol: as §1, §2

[17] = substrate: Nc1ncnc2c1ncn2[C@@H]1O[C@H](CCc2ccccc2)[C@@H](O)[C@H]1O
Protocol: as §1, §2

[18] = substrate: Cc1ccccc1CSC[C@H]1O[C@@H](n2cnc3c(N)ncnc32)[C@H](O)[C@@H]1O
Protocol: as §1, §2

[19] = substrate: Nc1ncnc2c1ncn2[C@@H]1O[C@H](COc2ccccn2)[C@@H](O)[C@H]1O
Protocol: as §1, §2

B1: Human MTAP (Homo sapiens) (protein)
chain: MASGTTTTAVKIGIIGGTGLDDPEILEGRTEKYVDTPFGKPSDALILGKIKNVDCVLLARHGRQHTIMPSKVNYQANIWALKEEGCTHVIVTTACGSLREEIQPGDIVIIDQFIDRTTMRPQSFYDGSHSCARGVCHIPMAEPFCPKTREVLIETAKKLGLRCHSKGTMVTIEGPRFSSRAESFMFRTWGADVINMTTVPEVVLAKEAGICYASIAMATDYDCWKEHEEAVSVDRVLKTLKENANKAKSLLLTTIPQIGSTEWSETLHNLKNMAQFSVLLPRH
notes: six-histidine tag (His6) (N); made in house; host or cells: E. coli BL21 DE3
B1 was tested, and the Km [1] was 3600 µM, the kcat [1] was 0.04 s⁻¹ and the Km [2] was 17 µM. For the same protein, the kcat [2] was 0.85 s⁻¹, the Km [3] was 3 µM and the kcat [3] was 1.5 s⁻¹. It also gave a Km [4] of 4.65 µM, a kcat [4] of 2.5 s⁻¹ and a Km [5] of 1300 µM. It also gave a kcat [5] of 0.018 s⁻¹, a Km [6] of 5.6 µM and a kcat [6] of 0.175 s⁻¹. It also gave a Km [7] of 13 µM, a kcat [7] of 0.13 s⁻¹ and a Km [8] of 145 µM. The kcat [8] was 0.089 s⁻¹, the Km [9] was 3.9 µM and the kcat [9] was 0.004 s⁻¹. The Km [10] was 2.233 µM, the kcat [10] was 3.97 s⁻¹ and the Km [11] was 7 µM. The kcat [11] was 4.1 s⁻¹, the Km [12] was 33 µM and the kcat [12] was 0.126 s⁻¹. It also gave a Km [13] of 5.4 µM, a kcat [13] of 2.24 s⁻¹ and a Km [14] of 7 µM. The kcat [14] was 0.8 s⁻¹, the Km [15] was 3.9 µM and the kcat [15] was 3.3 s⁻¹. It also gave a Km [16] of 3.4 µM, a kcat [16] of 2.49 s⁻¹ and a Km [17] of 1.3 µM. The kcat [17] was 4.6 s⁻¹, the Km [18] was 10 µM and the kcat [18] was 0.79 s⁻¹. It also gave a Km [19] of 29 µM and a kcat [19] of 3.82 s⁻¹.
